Data reported in the emibetuzumab library of Makowski et al. (2022).

B1: VH:VL chains; a variant is named by its letters at X, in order (parent)
chain 1: QVQLVQSGAEVKKPGASVKVSCKASGYTFTDYXMHWVRQAPGQGLEWMGXVNPNXXXTTYNQKFEGRVTMTTDTSTSTAYMELRSLRSDDTAVYYCARXNXLDXWGQGTTVTVSS
chain 2: DIQMTQSPSSLSASVGDRVTITCSVSSSVSSIYLHWYQQKPGKAPKLLIYSTSNLASGVPSRFSGSGSGTDFTLTISSLQPEDFATYYCQVYSGYPLTFGGGTKVEIK

Variants of: B1
Assay: yeast display scFab, FACS + sequencing
In short: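 For the non-specific binding call, a heavy-chain CDR mutant scFab library on the yeast surface was FACS-sorted and samples from two replicates were deep sequenced. Cells were labelled with anti-Myc and either biotinylated ovalbumin (260 μg/mL in PBSB, 3 h, room temperature) or soluble membrane proteins (130 μg/mL, 20 min on ice), with gates on the top 25% and bottom 10% of binders. With membrane protein and ovalbumin samples pooled, a sequence in ≥3 of 4 positive samples and no negatives was scored positive, and the converse rule scored negatives.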

Variant | non-specific binding call
YRARGAWY | binds
YRARGAWS | binds
YRARGAWF | binds
YRARGAWD | binds
YRARGAWV | binds
YRAGSSWD | binds
YRAKGYGA | binds
YRAGGYWY | binds
FRAGGAAA | binds
FRAGGAAV | binds
ARAGSFWA | binds
YRARGSLA | binds
YRARGSLF | binds
YRAKGSVD | binds
VRAGDDAV | no binding
YRAGGSSY | binds
YRAGASGA | binds
YRAGASGD | binds
VRARGALV | binds
DRAGDDGD | no binding
DRAGDDGS | no binding
DRAGDDGY | no binding
DRAGDDGA | no binding
YRAGGYGF | binds
YRAGGYGY | binds

Variant | non-specific binding call
YRAGGYGD | binds
YRARDDVF | no binding
VRAGGSAD | binds
VRAKGSAD | binds
YRAKGAAD | binds
YRAKGAAA | binds
YRAKGAAV | binds
FRAGDAGV | binds
ARAKTSWV | binds
DRAGDSGF | no binding
DRAGDSGA | no binding
YRAGGVVA | binds
FRAGGALS | binds
ARARGSGA | binds
ARAGDYLV | no binding
YRAGGFVA | binds
YRAGGFVV | binds
VRAGSSLD | no binding
YRAGGYVD | binds
YRAGGYVA | binds
YRAGGYVF | binds
YRARGAGF | binds
YRARGAGV | binds
YRARGAGY | binds
YRARGAGS | binds

Variant | non-specific binding call
YRARGAGA | binds
VRARGAAD | no binding
VRARGAAY | binds
YRAKGSAD | binds
YRAKGSAA | binds
YRAKGSAV | binds
YRAGDALD | no binding
DRAGDSVD | no binding
VRAGGFGA | binds
VRAGDSLS | no binding
VRAGDSLD | no binding
DRAGDDSA | no binding
VRAGGDSF | no binding
DRAGDSSA | no binding
YRAGDAVV | no binding
YRAGGVAV | binds
YRAGGFGS | binds
YRAGGFGY | binds
YRAGDSSS | no binding
YRAGDSSA | no binding
YRAKSSGV | binds
SRARGAAA | binds
FRAGGSSV | binds
YRAKGAWY | binds
VRAGGDLA | no binding

Variant | non-specific binding call
YRAKGAGD | binds
YRAKGAGS | binds
YRAKGAGV | binds
YRAKGAGA | binds
DRAGDDVY | no binding
DRAGDDVV | no binding
DRAGDDVF | no binding
VRAGDDGS | no binding
VRAGDDGA | no binding
VRAGDDGV | no binding
YRAGDDVY | no binding
YRAGDDVA | no binding
VRARGDVS | no binding
YRAKGSLD | binds
YRAKGSLA | binds
YRAGGAWY | binds
YRARGASA | binds
DRAGDDWY | no binding
DRAGDDWV | no binding
DRAGDDWA | no binding
YRAKGSWD | binds
YRAGGSVA | binds
FRAKGSAD | binds
YRAKSSSS | binds
VRAGADWY | no binding

Variant | non-specific binding call
DRAGDDLY | no binding
DRAGDDLA | no binding
SRARGAGA | binds
FRAGGSLF | binds
FRAGGSLY | binds
VRARGFVV | binds
VRAGDYLV | no binding
YRARGSAV | binds
YRARGSAA | binds
YRARGSAD | binds
FRAGSAVV | binds
YRAGSAAD | binds
YRAGSAAA | binds
YRARGALS | binds
YRARGALV | binds
ARAGGSVV | no binding
VRAGDSVA | no binding
YRAKGAVV | binds
YRARGSSS | binds
DRAGDALD | no binding
SRAGGSLY | binds
